“Also recorded” adds a separate entry of the source.
How the values were obtained:
[1] = molecular target: T1, chicken lysozyme (Gallus gallus, UniProt P00698); test: Far Western blot lysozyme-protein interaction assay; assay type: binding; settings: 1, 5, 10 μg immobilized lysozyme; washes with 0.05% Tween 20
Description: (§1) In order to test this hypothesis, a Far-Western blot lysozyme-protein interaction assay was performed. The assay is summarized in FIG. 5 and comprises generally the following three steps: (1) immobilization of purified lysozyme onto a membrane; (2) probing of the membrane with a ligand likely to bind directly to the lysozyme; and (3) immunodetection of the bound lysozyme-ligand. A detailed experimental procedure is presented below.
(§2) Purified chicken egg white lysozyme and human breast milk lysozyme were purchased from Sigma-Aldrich (Madrid, Spain). Two series of aliquot fractions containing 1 μg, 5 μg, and 10 μg of purified lysozyme and a protein molecular weight marker (SeeBlue Plus II™, Invitrogen SA, Barcelona, Spain) were separated electrophoretically through a 4-12% SDS-PAGE gel using the conditions recommended by the supplier (Invitrogen). The gel was then processed for Western blotting as described in Sambrook et al. (1989) according to art known methods, and the proteins were electro-transferred to an Immobilon™ P PVDF membrane (Millipore Corp., Bedford, Mass.). The presence of lysozyme immobilized onto the PVDF membrane was assessed by staining for 1 minute with Ponceau S stain (Sigma-Aldrich, Madrid, Spain), and then destained by vigorous washing for 5 minutes with desionized water. The membrane was divided in two, each portion containing a protein ladder and three quantities of chicken or human lysozyme (1 μg, 5 μg and 10 μg per lane). Each membrane was then incubated for 16 hours at 4° C. in 5 ml of TBST (10 mM Tris-HCl, pH 8.0, 150 mM NaCl, 0.05% weight/vol. Tween 20™,) supplemented with 5% (weight/vol.) of non-fat skimmed dried SVELTESSE™milk (NESTLÉ, ESPAÑA, Barcelona, Spain) (to make TBST-milk). […]

[2] = system: human lysozyme; test: as above; assay type: binding; settings: 1, 5, 10 μg immobilized lysozyme; washes with 0.05% Tween 20
Description: as §1, §2

[3] = molecular target: T1, chicken lysozyme; test: Lysozyme inhibition assay (EnzCheck, fluorescein-labeled Micrococcus lysodeikticus); assay type: biochemical
Description: (§3) To test this hypothesis, the antibacterial activity of both human and chicken lysozyme, in the presence or absence of GST-Tp17, was assayed using an EnzCheck® lysozyme assay kit (Molecular Probes, Eugene, Oreg.). The assay comprises the use of Fluorescein-labeled Micrococcus lysodeikticus bacterial cells as a fluorescent substrate of lysozyme. In this Gram positive bacterium, the peptidoglycan layer is directly accessible to lysozyme, and has been Fluorescein-labeled such that fluorescence is naturally quenched. Upon lysozyme hydrolysis, quenching is relieved and fluorescein is released in a quantity that is proportional to lysozyme activity. The following experimental protocol was used.
(§4) A typical 100 μl reaction consisted of 25 μl of lysozyme solution (10 units for chicken lysozyme or 50 units for human lysozyme, dissolved in deionized water), 25 μl of the test protein solution and 50 μl of a suspension of fluorescein-labeled Micrococcus lysodeikticus (50 μg/ml). The reaction was incubated for 45 minutes at 37° C. and the fluorescence was measured (λexc.=485 nm; λemi.=520 nm) using a fluorescence multi-well plate reader model FLx800 (Bio TEK instruments, Winoosky, Vt.) equipped with KC junior data acquisition software (Bio TEK Instruments, Winoosky, Vt.). Each experimental point was expressed as the mean and standard deviation corresponding to the reading of three independent wells. Wells containing 50 μl of deoinized water and […] of Fluorescein-labeled Micrococcus lysodeikticus suspension were used as a blank. Two fold serial dilutions of test protein were used to vary the concentration of the test protein from 83.5 to 1.3 μg/well.

[4] = system: human lysozyme; test: as above; assay type: biochemical
Description: as §3, §4

[5] = molecular target: T2, LISOZIMA CHIESI (chicken lysozyme) (Gallus gallus, UniProt P00698); test: Inhibition of commercial chicken lysozyme preparation (EnzCheck); assay type: biochemical; settings: lysozyme 4 μg/ml; molar ratio 1:5 to 1:50 GST-Tp17
T2 construct: natural hen egg-derived chicken lysozyme used in commercially available medicinal preparations; purchased CHIESI ESPAÑA SA, Barcelona, Spain
Description: (§5) Chicken Lysozyme is a potent antimicrobial enzyme active against both bacteria and viruses. Commercial preparations that contain Lysozyme as an active agent include, but are not limited to, LIZIPAINA® (Boehringer Ingelheim, San Cugat del Vallés, Spain) and LISOZIMA CHIESI (CHIESI ESPAÑA SA, Barcelona, Spain). […] To test this hypothesis, one tablet of each drug, LIZIPAINA® (containing 5 mg chicken lysozyme per tablet) and LISOZIMA CHIESI (containing 250 mg chicken lysozyme per tablet), was resuspended in deionized water (The Millipore Corporation, Bedford, Mass., USA) to adjust the Lysozyme concentration to 4 μg/ml. These samples were then incubated in absence or in presence of increasing amount of either GST-Tp17 or Tp17-HIS. In this experiment the molar ratio between chicken lysozyme and its cognate inhibitor was varied from 1:5 to 1:50 for GST-Tp17 and from 1:16 to 1:160 for Tp17-HIS. After an incubation period of 5 minutes at 20° C. the samples were assayed for lysozyme enzymatic activity using the EnzCheck® Lysozyme assay kit (E-22013; Molecular Probes Inc., Eugene, Oreg., USA) as recommended by the supplier guidelines.

[6] = molecular target: T3, LIZIPAINA (chicken lysozyme) (Gallus gallus, UniProt P00698); test: as above; assay type: biochemical; settings: lysozyme 4 μg/ml; molar ratio 1:5 to 1:50 GST-Tp17, 1:16 to 1:160 Tp17-HIS
T3 construct: natural hen egg-derived chicken lysozyme used in commercially available medicinal preparations; purchased Boehringer Ingelheim, San Cugat del Vallés, Spain
Description: as §5

[7] = system: Micrococcus lysodeikticus; settings: pH 6.24, 25° C, Micrococcus lysodeikticus substrate; cited from earlier work
[8] = system: human lysozyme; test: POD-labeled human lysozyme binding to immobilized β-APP forms (spot blot); settings: 10 μg spotted; POD-HuLYS diluted 1/1000
Description: To test whether the β-APP protein binds huLYS, we performed lysozyme binding assays using purified, recombinant forms of β-APP. Both sAPPα (product number: S9564) and sAPPα (302-612) (product number: S8065) were purchased from Sigma-Aldrich (Tres cantos, Madrid, Spain). 10 μg of each protein was spotted onto a Nytran membrane (Scleicher & Schüell, Dassel, Germany). Non-specific adsorption sites were blocked by incubation for one hour in TBST-milk. After three washes with TBST, the membrane was incubated for one hour with horse radish peroxidase (POD)-labeled human lysozyme diluted 1/1000 in TBST-milk. Next, the membrane was washed three times, for 5 minutes each wash, with TBST. Staining was performed by adding 5 ml of POD chromogenic substrate (TMB, product number: T0565, Sigma). […] Moreover, the β-APP/huLYS protein complex likely serves as a diagnostic marker of Alzheimer's disease.

[9] = mature protein; cited from earlier work
[10] = system: Micrococcus lysodeikticus; test: Antibacterial activity of lysozymes in presence or absence of Tp17 (EnzCheck Lysozyme assay); assay type: biochemical; settings: 1 unit human lysozyme or 230 units rLysozyme; 10 μg GST-Tp17 or Tp17-HIS
Description: as §3
In that context, we compared the antibacterial activity of human lysozyme (Ventria Bioscience, Sacramento, Calif., USA) and rLysozyme™ using the EnzCheck Lysozyme assay (E-22013; Molecular Probes, Eugene, Oreg.). We first determined that under the manufacturer's prescribed assay conditions, 1 unit of human lysozyme produced the same intensity of fluorescence as 230 units of rLysozyme™. Next, we measured the fluorescence intensity of either 1 unit of human lysozyme or 230 units of rLysozyme™, in the presence or absence of 10 μg of either GST-Tp17 or Tp17-HIS. […]

[11] = 83.5 to 1.3 μg/well test protein

T1 sequence (P00698 19-147): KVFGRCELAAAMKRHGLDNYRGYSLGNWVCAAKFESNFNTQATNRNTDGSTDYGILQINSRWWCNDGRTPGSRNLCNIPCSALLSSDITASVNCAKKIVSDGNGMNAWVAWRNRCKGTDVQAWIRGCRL
T3 sequence (P00698 19-147): as above
T2 sequence (P00698 19-147): as above

In the case of “GST-Tp17: recombinant fusion protein of GST and Treponema pallidum 17 kDa antigen Tp17 (SEQ ID NO:29)”, the “binding to chicken lysozyme” value [1] is reported as “detected binding”, the “binding to human lysozyme” value [2] is reported as “detected binding” and the “inhibition of acetyl muramidase activity of chicken lysozyme” value ([3]; as little as 1.3 μg/well test protein, 10 units lysozyme, 45 min 37° C) is reported as > 85%. The “inhibition of acetyl muramidase activity of human lysozyme” value ([4]; as little as 1.3 μg/well test protein, 50 units lysozyme, 45 min 37° C) was > 85%, the “inhibition of enzymatic antibacterial activity of LISOZIMA CHIESI” value [5] was “strongly inhibited” and the “inhibition of enzymatic antibacterial activity of LIZIPAINA” value [6] was “strongly inhibited”.

For “natural human breast milk lysozyme: purified natural human breast milk lysozyme (L-6394; Sigma-Aldrich)”, the specific activity [7] is given as 101,000 units/mg protein.

For “recombinant human lysozyme: purified recombinant human lysozyme from transgenic rice (159-53LZ-90P; Ventria Bioscience)”, the specific activity [7] is listed as 187,000 units/mg protein.

With “sAPPα: longer recombinant fragment of β-APP derived from the APP695 isoform (Sigma S9564)” the “binding of POD-labeled huLYS to immobilized protein” value [8] was “binding; also recorded: bound”.

B1: E. coli Ivy: Escherichia coli inhibitor of vertebrate lysozyme (P45502) (protein)
chain: QDDLTISSLAKGETTKAAFNQMVQGHKLPAWVMKGGTYTPAQTVTLGDETYQVMSACKPHDCGSQRIAVMWSEKSNQMTGLFSTIDEKTSQEKLTWLNVNDALSIDGKTVLFAALTGSLENHPDGFNFK
In the case of B1, the pI [9] is listed as 5.51.

B2: human lysozyme: human lysozyme (NP_000230); breast milk (Sigma) or recombinant (Ventria) depending on the example (protein)
chain: KVFERCELARTLKRLGMDGYRGISLANWMCLAKWESGYNTRATNYNAGDRSTDYGIFQINSRYWCNDGKTPGAVNACHLSCSALLQDNIADAVACAKRVVRDPQGIRAWVAWRNRCQNRDVRQYVQGCGV
For B2, the “susceptibility of antibacterial activity to inhibition by GST-Tp17 or Tp17-HIS” value [10] was “strongly inhibited”.

B3: Tp17-HIS: recombinant mature Tp17 (residues 23 to 156) with histidine tail, expressed in E. coli EcBK633 (protein)
chain: VSCTTVCPHAGKAKAEKVECALKGGIFRGTLPAADCPGIDTTVTFNADGTAQKVELALEKKSAPSPLTYRGTWMVREDGIVELSLVSSEQSKAPHEKELYELIDSNSVRYMGAPGAGKPSKEMAPFYVLKKTKK
modifications: left off: small tags and cut ends
notes: recombinant mature Tp17 (residues 23 to 156) with histidine tail, expressed in E. coli EcBK633
In the case of B3, the “inhibition of enzymatic antibacterial activity of LIZIPAINA” value [6] is reported as “strongly inhibited”.

B4: GST-Tp47: control fusion protein of GST and T. pallidum Tp47 antigen (protein)
chain: CGSSHHETHYGYATLSYADYWAGELGQSRDVLLAGNAEADRAGDLDAGMFDAVSRATHGHGAFRQQFQYAVEVLGEKVLSKQETEDSRGRKKWEYETDPSVTKMVRASASFQDLGEDGEIKFEAVEGAVALADRASSFMVDSEEYKITNVKVHGMKFVPVAVPHELKGIAKEKFHFVEDSRVTENTNGLKTMLTEDSFSARKVSSMESPHDLVVDTVGTGYHSRFGSDAEASVMLKRADGSELSHREFIDYVMNFNTVRYDYYGDDASYTNLMASYGTKHSADSWWKTGRVPRISCGINYGFDRFKGSGPGYYRLTLIANGYRDVVADVRFLPKYEGNIDIGLKGKVLTIGGADAETLMDAAVDVFADGQPKLVSDQAVSLGQNVLSADFTPGTEYTVEVRFKEFGSVRAKVVAQ
modifications: left off: a dimerising Fc or GST
notes: control fusion protein of GST and T. pallidum Tp47 antigen
In the case of B4, the “binding to chicken lysozyme” value [1] is reported as “No signal was detected”, the “binding to human lysozyme” value [2] is reported as “No signal was detected” and the “inhibitory effect on chicken lysozyme acetyl muramidase activity” value [3, 11] is reported as “did not exert any inhibitory effect”. The “inhibitory effect on human lysozyme acetyl muramidase activity” value [4, 11] was “did not exert any inhibitory effect”.
